Experimental findings from publication PMC5704485, “A unique cysteine-rich zinc finger domain present in a majority of class II ribonucleotide reductases mediates catalytic turnover” (The Journal of Biological Chemistry, 2017) are described below.

Where “and” joins values, the source holds several entries; their conditions need not be identical. Equal entries are not always repeated.

Experiment [1] concerns the target T1, NrdJd-wt (Snas 4560), full-length class II RNR (Stackebrandtia nassauensis, UniProt D3Q6G1).
T1 construct: gene Snas_4560; monomer/dimer, tetramer/hexamer with dATP or dGTP
T1 sequence (D3Q6G1 1-946): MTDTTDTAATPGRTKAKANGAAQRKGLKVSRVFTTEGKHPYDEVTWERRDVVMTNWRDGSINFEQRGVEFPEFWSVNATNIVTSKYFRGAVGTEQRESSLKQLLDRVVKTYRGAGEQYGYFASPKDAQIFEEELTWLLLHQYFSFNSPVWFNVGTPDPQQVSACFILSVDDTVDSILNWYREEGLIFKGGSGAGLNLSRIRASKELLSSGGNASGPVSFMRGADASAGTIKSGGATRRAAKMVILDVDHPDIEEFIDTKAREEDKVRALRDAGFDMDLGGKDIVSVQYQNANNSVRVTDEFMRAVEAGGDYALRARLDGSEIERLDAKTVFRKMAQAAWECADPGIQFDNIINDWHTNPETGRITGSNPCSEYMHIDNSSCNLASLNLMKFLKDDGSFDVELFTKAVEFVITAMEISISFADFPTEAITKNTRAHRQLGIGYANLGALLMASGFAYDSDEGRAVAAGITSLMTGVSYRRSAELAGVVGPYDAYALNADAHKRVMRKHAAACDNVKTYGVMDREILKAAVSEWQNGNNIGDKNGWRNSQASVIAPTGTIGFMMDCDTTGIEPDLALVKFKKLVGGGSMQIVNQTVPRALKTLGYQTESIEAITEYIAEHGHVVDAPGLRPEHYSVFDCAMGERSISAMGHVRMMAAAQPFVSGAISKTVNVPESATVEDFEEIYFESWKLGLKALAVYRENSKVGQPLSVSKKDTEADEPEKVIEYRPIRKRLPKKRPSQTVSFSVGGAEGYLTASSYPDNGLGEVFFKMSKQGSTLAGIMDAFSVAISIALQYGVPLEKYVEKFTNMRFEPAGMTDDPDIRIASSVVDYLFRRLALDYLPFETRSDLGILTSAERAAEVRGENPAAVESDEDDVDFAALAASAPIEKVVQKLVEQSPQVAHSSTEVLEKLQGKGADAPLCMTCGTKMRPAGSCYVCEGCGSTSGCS
Description: effector titration of NDP reductase activity, HPLC. Particulars: half-maximal activation by allosteric effector, AdoCbl. The experiment is classed as biochemical.

For another experiment, the target named is T2, NrdJdΔCRD (Stackebrandtia nassauensis, UniProt D3Q6G1).
T2 construct: gene Snas_4560; catalytic domain, residues 1-714 (codon 715 replaced by stop), C-terminal cysteine-rich domain removed; mainly monomer
Kind of experiment: effector titration of NDP reductase activity, HPLC. The experiment is classed as biochemical. The conditions noted are these: half-maximal activation by allosteric effector; range printed for all effectors together; single preferred NDP substrate; AdoCbl; Tris pH 8.0, 20 mM MgCl2, 50 mM DTT, room temperature.

Experiment [2] concerns the target NrdJd-wt, the full-length version of the Stackebrandtia nassauensis class II ribonucleotide reductase (Stackebrandtia nassauensis). Kind of experiment: GEMMA (gas phase electrophoretic macromolecule analysis); 0.075 mg/ml NrdJd-wt, no effector; 40 mM ammonium acetate pH 7.8, 0.005% Tween 20, 0.2 mM DTT.
Experiment [3] has the same target. Description: GEMMA (gas phase electrophoretic macromolecule analysis); 0.075 mg/ml NrdJd-wt with dCTP, equimolar MgCl2; 40 mM ammonium acetate pH 7.8, 0.005% Tween 20, 0.2 mM DTT.
The target is the same in experiment [4]. Kind of experiment: SEC; analytical SEC, Superdex 200 Increase 3.2, 25 μl of 1.0 mg/ml protein, 50 mM Tris pH 7.5, 300 mM NaCl, 1 mM DTT, in the presence or absence of 100 μM effector (dATP). For orientation: SEC sorts molecules by how far they enter the pores of the column.
Experiment [5] has the same target. Kind of experiment: GEMMA (gas phase electrophoretic macromolecule analysis); 0.075 mg/ml NrdJd-wt with 100 μM dTTP, equimolar MgCl2; 40 mM ammonium acetate pH 7.8, 0.005% Tween 20, 0.2 mM DTT.
For experiment [6] the target is unchanged. Description: GEMMA (gas phase electrophoretic macromolecule analysis); 0.075 mg/ml NrdJd-wt with dATP (100 μM, and a titration of dATP), equimolar MgCl2; 40 mM ammonium acetate pH 7.8, 0.005% Tween 20, 0.2 mM DTT.
Experiment [7] has the same target. Description: GEMMA (gas phase electrophoretic macromolecule analysis); 0.075 mg/ml NrdJd-wt with dGTP (100 μM, and a titration of dGTP), equimolar MgCl2; 40 mM ammonium acetate pH 7.8, 0.005% Tween 20, 0.2 mM DTT.
For experiment [8], the target named is T1, NrdJd-wt (Snas 4560), full-length class II RNR. Kind of experiment: GEMMA oligomerization titration. The experiment is classed as binding. The conditions noted are these: effector-induced tetramer/hexamer formation; 0.075 mg/ml protein; 40 mM ammonium acetate pH 7.8, equimolar MgCl2; possible further nucleotide site.
Experiment [9] deals with T3, C933A/C370A mixture (mutant mix) of NrdJd (Stackebrandtia nassauensis, UniProt D3Q6G1, C370A/C933A).
T3 construct: gene Snas_4560; equimolar mixture of two separately purified full-length single mutants (not a double mutant)
T3 sequence (D3Q6G1 entry or part of it C370A): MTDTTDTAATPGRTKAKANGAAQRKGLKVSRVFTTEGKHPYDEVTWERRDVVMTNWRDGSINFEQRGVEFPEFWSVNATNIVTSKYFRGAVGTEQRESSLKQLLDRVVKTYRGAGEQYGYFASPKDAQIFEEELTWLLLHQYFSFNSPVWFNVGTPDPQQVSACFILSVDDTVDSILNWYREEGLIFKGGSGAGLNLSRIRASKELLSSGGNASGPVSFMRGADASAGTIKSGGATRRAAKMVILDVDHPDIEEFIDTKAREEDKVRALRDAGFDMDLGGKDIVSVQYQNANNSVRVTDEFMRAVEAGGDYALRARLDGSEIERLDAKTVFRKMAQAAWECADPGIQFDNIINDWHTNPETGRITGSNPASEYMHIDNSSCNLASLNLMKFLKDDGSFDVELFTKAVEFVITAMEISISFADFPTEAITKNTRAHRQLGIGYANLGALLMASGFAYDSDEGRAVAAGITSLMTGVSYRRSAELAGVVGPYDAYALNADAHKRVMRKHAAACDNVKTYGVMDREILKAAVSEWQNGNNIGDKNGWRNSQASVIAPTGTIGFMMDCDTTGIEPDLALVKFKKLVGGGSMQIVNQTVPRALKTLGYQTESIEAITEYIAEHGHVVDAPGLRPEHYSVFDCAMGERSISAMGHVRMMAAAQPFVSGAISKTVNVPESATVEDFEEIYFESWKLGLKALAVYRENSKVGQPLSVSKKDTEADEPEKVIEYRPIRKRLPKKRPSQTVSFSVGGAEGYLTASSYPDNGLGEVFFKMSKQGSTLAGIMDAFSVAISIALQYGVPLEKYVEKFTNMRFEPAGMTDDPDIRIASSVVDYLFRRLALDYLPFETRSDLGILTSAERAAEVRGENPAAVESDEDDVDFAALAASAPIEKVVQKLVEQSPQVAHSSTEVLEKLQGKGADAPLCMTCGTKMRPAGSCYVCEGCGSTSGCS
T3 sequence (D3Q6G1 entry or part of it C933A): as the sequence (D3Q6G1 entry or part of it C370A) above, with A370C, C933A counted along it
Description: effector titration of CDP reductase activity, HPLC. The experiment is classed as biochemical. Particulars: half-maximal activation by allosteric effector; equimolar mixture of two single mutants; substrate CDP; reductant TCEP; AdoCbl; standard assay Tris pH 8.0, 20 mM MgCl2, room temperature.

The target of experiment [10] is S. nassauensis NrdJd C933A, C-terminal (CRD) mutant (Stackebrandtia nassauensis).
The target of experiment [11] is NrdJdΔCRD, the C-terminally deleted version of the S. nassauensis class II ribonucleotide reductase (Stackebrandtia nassauensis). Description: GEMMA (gas phase electrophoretic macromolecule analysis); 0.025 mg/ml NrdJdΔCRD, with or without 100 μM effector (dATP); 40 mM ammonium acetate pH 7.8, 0.005% Tween 20, 0.2 mM DTT.
Setting [12] is: single preferred NDP substrate (not given), Tris pH 8.0, 20 mM MgCl2, 50 mM DTT (standard conditions), room temperature, upper limit sta.

One may read the EC50 as the concentration needed to bring the measured effect to its halfway point. As to `Nc1nc2c(ncn2[C@H]2C[C@H](O)[C@@H](COP(=O)(O)OP(=O)(O)OP(=O)(O)O)O2)c(=O)[nH]1` [dGTP], in experiment [1] (setting [12]), the EC50 is under 4 µM.
With `Cc1cn([C@H]2C[C@H](O)[C@@H](COP(=O)(O)OP(=O)(O)OP(=O)(O)O)O2)c(=O)[nH]c1=O` [dTTP], the EC50 in experiment [1] (setting [12]) is under 4 µM.
`Nc1ccn([C@H]2C[C@H](O)[C@@H](COP(=O)(O)OP(=O)(O)OP(=O)(O)O)O2)c(=O)n1` [dCTP]: in experiment [1] (setting [12]), the half-maximal effective concentration (EC50) is under 4 µM.
On to `Nc1ncnc2c1ncn2[C@@H]1O[C@H](COP(=O)(O)OP(=O)(O)OP(=O)(O)O)[C@@H](O)[C@H]1O` [ATP], for which, in experiment [1] (setting [12]), the EC50 was under 4 µM. Further, the KL entry at NrdJdΔCRD is “the affinity of the C-terminal truncated enzyme toward each tested effector is reduced”.
For orientation: stoichiometry N means the number of molecules, sites or subunits per partner or assembly. “NrdJd-wt, the full-length version of the Stackebrandtia nassauensis class II ribonucleotide reductase (enzyme)”: the stoichiometry N was 2 in experiment [2]; 2 in experiment [3]; 4 in [4]; 2 in experiment [5]; 4 and 6 in experiment [6]; 4 and 6 in experiment [7].
For `Nc1ncnc2c1ncn2[C@H]1C[C@H](O)[C@@H](COP(=O)(O)OP(=O)(O)OP(=O)(O)O)O1` [dATP], the “concentration with half the enzyme as tetramer or hexamer” value in experiment [8] was ~ 17 μmol liter^−1. For the same compound, the EC50 in experiment [1] (substrate CDP, reductant TCEP, standard assay Tris pH 8.0, 20 mM MgCl2, room temperature) is under 4 µM; in [9] it was 15 ± 4.5 µM.
Consider “S. nassauensis NrdJd C370A, active site cysteine-deficient mutant (enzyme)”, for which, in experiment [10], the RNR activity of the C933A/C370A mixture, substrate/effector GDP/dTTP (dimers only), TCEP as reductant, dTTP titrated 4 to 1000 μM, relative to NrdJd-wt (3 to 7%) (% of NrdJd-wt) is 3 to 7; the Vmax of RNR activity of the C933A/C370A mixture, substrate/effector CDP/dATP (tetramers and hexamers), TCEP as reductant, relative to NrdJd-wt (% of the wild type) came out at 30.
In [11], “NrdJdΔCRD, the C-terminally deleted version of the S. nassauensis class II ribonucleotide reductase (domain or fragment)” came in with a stoichiometry N of 2.
